Percent of nascent chains in complex C and percent of nascent chains retained in complex C after 1 hour data for 1 substance are collected here from PMC4402133.

Assay in all cases: native gel or EMSA
On the technique in general: Mobility shift assays separate free from complexed probe on a gel.

The target of experiment [1] is pPL-188 nascent chain (bovine) (UniProt P01239).
Experiment [2] deals with pPL-163 nascent chain (bovine) (UniProt P01239).
Experiment [3] has as its target pPL^45-Zn-163 nascent chain (bovine | S. cerevisiae) (UniProt P01239).
The target of experiment [4] is pPL-223 nascent chain (bovine) (UniProt P01239).

As for “RAMP complex C (~500 kD Sec61/62/63 complex) (from UniProt P38377 1-476; P82009 1-39; P82008 1-33; Q05052 33-445)”, the percent of nascent chains in complex C came to 2% in experiment [1], 2% in experiment [2] and 5% in experiment [4]. Moreover, the values for the percent of nascent chains retained in complex C after 1 hour at 24°C in experiment [2] and in experiment [3] were 88% and 95%, respectively.
